Data on six sequences can be found in the supplement of paper PMC5998384.

In data set [1] the test system is HeLa Kyoto. As to the kind of experiment: thermal stability score vs G1/S (z-score of summed log2 fold changes over temperatures); higher = more thermally stable than in G1/S.
Data set [2] deals with HeLa Kyoto. In words: melting temperature (median over replicates), in situ; higher = more thermally stable.
Data set [3] concerns HeLa Kyoto. In words: solubility in G1/S (NP-40 vs SDS abundance) (log2 ratio); higher = more soluble. Particulars: cell cycle stage: G1/S.
In data set [4] the test system is HeLa Kyoto. As to the kind of experiment: solubility change mitosis vs G1/S (difference of NP-40 vs SDS log2 ratios) (log2 ratio difference); higher = more soluble in mitosis.
Setting [5] is: cell cycle stage: early G1 (4.5 h after nocodazole release).
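For melting temperature (median over replicates), in situ in this document: HeLa Kyoto cells synchronized by double thymidine or nocodazole block, proteins quantified by TMT10plex mass spectrometry, three independent biological replicates.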
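For solubility change mitosis vs G1/S (difference of NP-40 vs SDS log2 ratios) in this document: synchronized HeLa Kyoto cells (double thymidine block for G1/S, nocodazole release for mitosis), protein amounts in NP-40 versus SDS lysates quantified by mass spectrometry, three biological replicates.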
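For solubility in G1/S (NP-40 vs SDS abundance) in this document: HeLa Kyoto cells arrested at G1/S by double thymidine block, proteins quantified by TMT10plex mass spectrometry in mild NP-40 versus SDS extracts, three biological replicates.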
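For thermal stability score vs G1/S (z-score of summed log2 fold changes over temperatures) in this document: synchronized HeLa Kyoto cells, proteins quantified by TMT10plex mass spectrometry, three biological replicates, mitosis taken 0.5 h after nocodazole release, G1/S directly after double thymidine block.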

In the case of “MLVSGRRRLLTVLLQAQKWPFQPSRDMRLVQFRAPHLVGPHLGLETGNGGGVINLNAFDPTLPKTMTQFLEQGEATLSVARRALAAQLPVLPRSEVTFLAPVTRPDKVVCVGMNYVDHCKEQNVPVPKEPIIFSKFASSIVGPYDEVVLPPQSQEVDWEVELAVVIGKKGKHIKATDAMAHVAGFTVAHDVSARDWQMRRNGKQWLLGKTFDTFCPLGPALVTKDSVADPHNLKICCRVNGEVVQSGNTNQMVFKTEDLIAWVSQFVTFYPGDVILTGTPPGVGVFRKPPVFLKKGDEVQCEIEELGVIINKVV [FAHD2A]”, the figures for the thermal stability score with HeLa Kyoto [1] (setting [5]) and in the data set on HeLa Kyoto [1] (cell cycle stage: mitosis) were -1.17 and -2.54, respectively. The melting temperature in the data set on HeLa Kyoto [2] (cell cycle stage: G1/S) was 55.7 °C; with HeLa Kyoto [2] (cell cycle stage: mitosis) it was 56.4 °C. For the same sequence, the “solubility in G1/S (log2)” value in the data set on HeLa Kyoto [3] came out at 0.253. Further, the “solubility change mitosis (log2)” value in the data set with HeLa Kyoto [4] was -0.192.

As to “MLVVEVANGRSLVWGAEAVQALRERLGVGGRTVGALPRGPRQNSRLGLPLLLMPEEARLLAEIGAVTLVSAPRPDSRHHSLALTSFKRQQEESFQEQSALAAEARETRRQELLEKITEGQAAKKQKLEQASGASSSQEAGSSQAAKEDETSDGQASGEQEEAGPSSSQAGPSNGVAPLPRSALLVQLATARPRPVKARPLDWRVQSKDWPHAGRPAHELRYSIYRDLWERGFFLSAAGKFGGDFLVYPGDPLRFHAHYIAQCWAPEDTIPLQDLVAAGRLGTSVRKTLLLCSPQPDGKVVYTSLQWASLQ [TSEN34]”, the thermal stability score is 1.68 in the data set with HeLa Kyoto [1] (setting [5]) and 2.17 in the data set with HeLa Kyoto [1] (cell cycle stage: mitosis). In addition, the results for the melting temperature in the data set on HeLa Kyoto [2] (cell cycle stage: G1/S) and with HeLa Kyoto [2] (cell cycle stage: mitosis) were 49.3 °C and 49.8 °C, respectively. For the same sequence, the “solubility in G1/S (log2)” value in the data set on HeLa Kyoto [3] amounted to 0.191. Moreover, the “solubility change mitosis (log2)” value in the data set on HeLa Kyoto [4] is -0.159.

For “MLWFQGAIPAAIATAKRSGAVFVVFVAGDDEQSTQMAASWEDDKVTEASSNSFVAIKIDTKSEACLQFSQIYPVVCVPSSFFIGDSGIPLEVIAGSVSADELVTRIHKVRQMHLLKSETSVANGSQSESSVSTPSASFEPNNTCENSQSRNAELCEIPPTSDTKSDTATGGESAGHATSSQEPSGCSDQRPAEDLNIRVERLTKKLEERREEKRKEEEQREIKKEIERRKTGKEMLDYKRKQEEELTKRMLEERNREKAEDRAARERIKQQIALDRAERAARFAKTKEEVEAAKAAALLAKQAEMEVKRESYARERSTVARIQFRLPDGSSFTNQFPSDAPLEEARQFAAQTVGNTYGNFSLATMFPRREFTKEDYKKKLLDLELAPSASVVLLPAGRPTASIVHSSSGDIWTLLGTVLYPFLAIWRLISNFLFSNPPPTQTSVRVTSSEPPNPASSSKSEKREPVRKRVLEKRGDDFKKEGKIYRLRTQDDGEDENNTWNGNSTQQM [UBXN4]”, the values for the thermal stability score with HeLa Kyoto [1] (setting [5]) and in the data set with HeLa Kyoto [1] (cell cycle stage: mitosis) were -0.0363 and 0.462, respectively. The figures for the melting temperature in the data set on HeLa Kyoto [2] (cell cycle stage: G1/S) and in the data set with HeLa Kyoto [2] (cell cycle stage: mitosis) were 51.8 °C and 52.1 °C, respectively. Also, in the data set on HeLa Kyoto [3], the “solubility in G1/S (log2)” value is -0.0609. Further, the “solubility change mitosis (log2)” value in the data set on HeLa Kyoto [4] was -0.108.

As to “MLYFSLFWAARPLQRCGQLVRMAIRAQHSNAAQTQTGEANRGWTGQESLSDSDPEMWELLQREKDRQCRGLELIASENFCSRAALEALGSCLNNKYSEGYPGKRYYGGAEVVDEIELLCQRRALEAFDLDPAQWGVNVQPYSGSPANLAVYTALLQPHDRIMGLDLPDGGHLTHGYMSDVKRISATSIFFESMPYKLNPKTGLIDYNQLALTARLFRPRLIIAGTSAYARLIDYARMREVCDEVKAHLLADMAHISGLVAAKVIPSPFKHADIVTTTTHKTLRGARSGLIFYRKGVKAVDPKTGREIPYTFEDRINFAVFPSLQGGPHNHAIAAVAVALKQACTPMFREYSLQVLKNARAMADALLERGYSLVSGGTDNHLVLVDLRPKGLDGARAERVLELVSITANKNTCPGDRSAITPGGLRLGAPALTSRQFREDDFRRVVDFIDEGVNIGLEVKSKTAKLQDFKSFLLKDSETSQRLANLRQRVEQFARAFPMPGFDEH [SHMT2]”, the figures for the thermal stability score in the data set with HeLa Kyoto [1] (setting [5]) and with HeLa Kyoto [1] (cell cycle stage: mitosis) were 0.0206 and 0.314, respectively. The melting temperature with HeLa Kyoto [2] (cell cycle stage: G1/S) worked out at 56.7 °C; with HeLa Kyoto [2] (cell cycle stage: mitosis), 56.8 °C. In addition, the “solubility in G1/S (log2)” value in the data set with HeLa Kyoto [3] was determined as 0.416. In addition, the “solubility change mitosis (log2)” value in the data set on HeLa Kyoto [4] was -0.0179.

Take “MMAAEAGSEEGGPVTAGAGGGGAAAGSSAYPAVCRVKIPAALPVAAAPYPGLVETGVAGTLGGGAALGSEFLGAGSVAGALGGAGLTGGGTAAGVAGAAAGVAGAAVAGPSGDMALTKLPTSLLAETLGPGGGFPPLPPPPYLPPLGAGLGTVDEGDSLDGPEYEEEEVAIPLTAPPTNQWYHGKLDRTIAEERLRQAGKSGSYLIRESDRRPGSFVLSFLSQMNVVNHFRIIAMCGDYYIGGRRFSSLSDLIGYYSHVSCLLKGEKLLYPVAPPEPVEDRRRVRAILPYTKVPDTDEISFLKGDMFIVHNELEDGWMWVTNLRTDEQGLIVEDLVEEVGREEDPHEGKIWFHGKISKQEAYNLLMTVGQVCSFLVRPSDNTPGDYSLYFRTNENIQRFKICPTPNNQFMMGGRYYNSIGDIIDHYRKEQIVEGYYLKEPVPMQDQEQVLNDTVDGKEIYNTIRRKTKDAFYKNIVKKGYLLKKGKGKRWKNLYFILEGSDAQLIYFESEKRATKPKGLIDLSVCSVYVVHDSLFGRPNCFQIVVQHFSEEHYIFYFAGETPEQAEDWMKGLQAFCNLRKSSPGTSNKRLRQVSSLVLHIEEAHKLPVKHFTNPYCNIYLNSVQVAKTHAREGQNPVWSEEFVFDDLPPDINRFEITLSNKTKKSKDPDILFMRCQLSRLQKGHATDEWFLLSSHIPLKGIEPGSLRVRARYSMEKIMPEEEYSEFKELILQKELHVVYALSHVCGQDRTLLASILLRIFLHEKLESLLLCTLNDREISMEDEATTLFRATTLASTLMEQYMKATATQFVHHALKDSILKIMESKQSCELSPSKLEKNEDVNTNLTHLLNILSELVEKIFMASEILPPTLRYIYGCLQKSVQHKWPTNTTMRTRVVSGFVFLRLICPAILNPRMFNIISDSPSPIAARTLILVAKSVQNLANLVEFGAKEPYMEGVNPFIKSNKHRMIMFLDELGNVPELPDTTEHSRTDLSRDLAALHEICVAHSDELRTLSNERGAQQHVLKKLLAITELLQQKQNQYTKTNDVR [RASA1]”: the thermal stability score in the data set on HeLa Kyoto [1] (setting [5]) is 0.554; with HeLa Kyoto [1] (cell cycle stage: mitosis) it was 0.915. Moreover, the melting temperature in the data set with HeLa Kyoto [2] (cell cycle stage: G1/S) stood at 49.8 °C; with HeLa Kyoto [2] (cell cycle stage: mitosis) it was 50.1 °C. The “solubility in G1/S (log2)” value in the data set on HeLa Kyoto [3] is -0.0958. In addition, the “solubility change mitosis (log2)” value in the data set on HeLa Kyoto [4] was -0.135.

Take “MMAAVPPGLEPWNRVRIPKAGNRSAVTVQNPGAALDLCIAAVIKECHLVILSLKSQTLDAETDVLCAVLYSNHNRMGRHKPHLALKQVEQCLKRLKNMNLEGSIQDLFELFSSNENQPLTTKVCVVPSQPVVELVLMKVLGACKLLLRLLDCCCKTFLLTVKHLGLQEFIILNLVMVGLVSRLWVLYKGVLKRLILLYEPLFGLLQEVARIQPMPYFKDFTFPSDITEFLGQPYFEAFKKKMPIAFAAKGINKLLNKLFLINEQSPRASEETLLGISKKAKQMKINVQNNVDLGQPVKNKRVFKEESSEFDVRAFCNQLKHKATQETSFDFKCSQSRLKTTKYSSQKVIGTPHAKSFVQRFREAESFTQLSEEIQMAVVWCRSKKLKAQAIFLGNKLLKSNRLKHLEAQGTSLPKKLECIKTSICNHLLRGSGIKTSKHHLRQRRSQNKFLRRQRKPQRKLQSTLLREIQQFSQGTRKSATDTSAKWRLSHCTVHRTDLYPNSKQLLNSGVSMPVIQTKEKMIHENLRGIHENETDSWTVMQINKNSTSGTIKETDDIDDIFALMGV [NEPRO]”: the thermal stability score in the data set with HeLa Kyoto [1] (setting [5]) is -0.703; with HeLa Kyoto [1] (cell cycle stage: mitosis), -1.65. Further, the melting temperature in the data set on HeLa Kyoto [2] (cell cycle stage: G1/S) amounted to 49.7 °C; in the data set with HeLa Kyoto [2] (cell cycle stage: mitosis), 50.3 °C. Further, in the data set with HeLa Kyoto [3], the “solubility in G1/S (log2)” value is -0.993. In addition, in the data set with HeLa Kyoto [4], the “solubility change mitosis (log2)” value amounted to 0.574.
